The record followed here is patent US20190062420A1 (Janssen / Centocor, published 2019).

Assay [1] has as its target T1, human FcγRIIA (NM_021642) expressed on cells (human, UniProt P12318 36-317).
T1 construct: Transiently expressed on Expi293F cells; also used here for FcγRIIA on human macrophages in the ADCP assay; also called Expi293F FcγRIIA; HEK293F cells expressing FcγRIIA
T1 sequence: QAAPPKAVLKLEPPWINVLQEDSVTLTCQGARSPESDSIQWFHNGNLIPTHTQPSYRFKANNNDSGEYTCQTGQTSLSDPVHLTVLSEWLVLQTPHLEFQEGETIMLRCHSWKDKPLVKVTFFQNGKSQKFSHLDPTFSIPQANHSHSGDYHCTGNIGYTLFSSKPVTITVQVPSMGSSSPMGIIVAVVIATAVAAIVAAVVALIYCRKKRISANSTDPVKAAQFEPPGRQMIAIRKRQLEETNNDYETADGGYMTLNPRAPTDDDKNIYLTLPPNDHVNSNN
In words: flow cytometry; Expi293F cells transfected with FcγRIIA. For orientation: In flow cytometry, cells or beads pass a laser one at a time.

Assay [2] has as its target T2, human FcγRIIB (NM_004001) expressed on cells (human, UniProt P31994 43-310).
T2 construct: Transiently expressed on Expi293F cells; also called Expi293F FcγRIIB; HEK293F cells expressing FcγRIIB
T2 sequence: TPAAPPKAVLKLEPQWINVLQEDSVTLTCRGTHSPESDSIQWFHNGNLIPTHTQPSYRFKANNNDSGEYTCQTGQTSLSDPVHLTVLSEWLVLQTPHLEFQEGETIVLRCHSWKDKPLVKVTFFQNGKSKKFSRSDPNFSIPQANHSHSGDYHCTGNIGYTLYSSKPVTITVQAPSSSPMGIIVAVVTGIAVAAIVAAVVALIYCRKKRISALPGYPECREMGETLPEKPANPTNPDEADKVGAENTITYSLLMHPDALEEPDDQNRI
Description: flow cytometry; Raji cells (express predominantly FcγRIIB). The procedure, abridged:
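Raji B cells, predominantly FcγRIIB-expressing, BSA-blocked, then incubated with mAbtyrin titrations 1.5 h at 4° C. Bound antibody detected with PE-labeled anti-human IgG F(ab′) 45 min at 4° C. Geometric mean fluorescence from ≥10,000 DRAQ7-excluded live cells; EC₅₀ by nonlinear regression of log concentration.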

Assay [3] has as its target T2, human FcγRIIB (NM_004001) expressed on …. In words: flow cytometry; Expi293F cells transfected with FcγRIIB.
For assay [4] the target is unchanged. In words: cell-based or functional assay.
Assay [5] shares this target. In words: cell-based or functional assay. The source holds these as a separate data set.
For another assay, the target named is T3, FcγRIIB protein (human, UniProt P31994 43-217, biotinylated (SureLINK Biotin Kit) in the ELISA of Example 1).
T3 construct: Soluble/recombinant antigen used in ELISA; also called bt-FcγRIIB; recombinant FcγRIIB protein
T3 sequence: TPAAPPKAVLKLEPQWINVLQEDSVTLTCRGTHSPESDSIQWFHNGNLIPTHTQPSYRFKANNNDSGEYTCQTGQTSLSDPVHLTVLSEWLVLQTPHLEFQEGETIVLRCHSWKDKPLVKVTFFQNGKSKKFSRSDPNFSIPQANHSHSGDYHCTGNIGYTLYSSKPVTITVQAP
In words: ELISA; FcγRIIB protein coated on plate, anti-human IgG-HRP detection. As for the experimental part: Effect of the mAbtyrins on T cell activation was evaluated. Briefly, recombinant FcγRIIB or FcγRIIA protein was coated on the plate to provide the crosslinking activity. For T cell activation assay, 100 μL of 30 ng/mL anti-CD3 antibody (OKT3) and 1 μg/mL FcγRIIB or FcγRIIA protein in DPBS were coated in U-bottomed 96-well tissue culture plate overnight. CD4 positive T cells were isolated from PBMC by negative selection. OX40 expression was induced by culturing the isolated T cells in the presence of 1 μg/mL PHA overnight. On the assay day, the coating solution in the plate were aspirated and 150 μL RPMI media was added to block the plate. The cultured T cells were washed three times by RPMI culture media and between 25,000 to 50,000 CD4 positive T cells were seeded in each well in the assay plate. Test mAbtyrins were added to the cells and the plate was incubated for 3 days. T cell activation was assessed by the induction of IFNγ or TNFα production, which was quantitated by human IFNγ or TNFα ELISA detection kit (Biolegend). Prior to T cell activation assay, the binding affinity of mAbtyrins to immobilized FcγRIIB or FcγRIIA protein were evaluated by an ELISA assay. […] The binding of mAbtyrins to immobilized FcγRIIB or FcγRIIA protein were detected by HRP-conjugated anti-Human IgG(γ) secondary antibody and quantitated by ELISA assay using TMB substrate.
For orientation: An ELISA detects its analyte on a solid surface through an enzyme-linked reagent.

B1: OX40SF2IgG2sigma_R2BS29_HC-C (bispecific antibody)
heavy: QVQLVQSGAEVKKPGSSVKVSCKASGYTFKDYTMHWVRQAPGQGLEWIGGIYPNNGGSTYNQNFKDRVTLTADKSTSTAYMELSSLRSEDTAVYYCARMGYHGPHLDFDVWGQGTTVTVSSASTKGPSVFPLAPCSRSTSESTAALGCLVKDYFPEPVTVSWNSGALTSGVHTFPAVLQSSGLYSLSSVVTVPSSNFGTQTYTCNVDHKPSNTKVDKTVERKCCVECPPCPAPPAAASSVFLFPPKPKDTLMISRTPEVTCVVVDVSAEDPEVQFNWYVDGVEVHNAKTKPREEQFNSTFRVVSVLTVLHQDWLNGKEYKCKVSNKGLPSSIEKTISKTKGQPREPQVYTLPPSREEMTKNQVSLTCLVKGFYPSDIAVEWESNGQPENNYKTTPPMLDSDGSFFLYSKLTVDKSRWQQGNVFSCSVMHEALHNHYTQKSLSLSPGKGGGGGSGGGGSGGGGSGGGGSLPAPKNLVVSRVTEDSARLSWTAPDAAFDSFPIYYWEYRVGGEAIVLTVPGSERSYDLTGLKPGTEYFVYINGVKGGEESRPLSAIFTT
light: DIQMTQSPSSLSASVGDRVTITCKASQDVGAAVAWYQQKPGKAPKLLIYWASTRHTGVPSRFSGSGSGTDFTLTISSLQPEDFATYYCQQYINYPLTFGGGTKVEIKRTVAAPSVFIFPPSDEQLKSGTASVVCLLNNFYPREAKVQWKVDNALQSGNSQESVTEQDSKDSTYSLSSTLTLSKADYEKHKVYACEVTHQGLSSPVTKSFNRGEC
notes: mAbtyrin: anti-OX40 antibody OX40SF2, effector silent IgG2sigma, with linker and R2BS29 FN3 domain at the C-terminus of the heavy chain; also called mAbtyrin
Broadly, the EC50 is the midpoint of the concentration-response curve. A higher EC50 goes with a less potent agent. Regarding B1, the EC50 came out at 0.091 µg/mL in assay [1], 1.44 µg/mL in assay [2] and 0.512 µg/mL in assay [3]. Moreover, the “Binding to Raji cells mean signals at 10 µg/ml” value in assay [2] is 11900 mean fluorescence signal. Further, the “% activity at 1 µg/ml with Raji cells (HEK-Blue: OX40 NF-κB reporter, relative to 1 µg/ml OX40 ligand)” value in assay [4] came out at 86%. In addition, in assay [4], the “fold of agonism enhancement upon crosslinking (Raji cells)” value stood at 15 fold. The “fold of agonism enhancement upon crosslinking (Daudi cells)” value in assay [5] amounted to 45 fold.

B2: OX40SF2IgG1 (antibody)
heavy: not shown
light: B1 light
notes: Anti-OX40 antibody, wild-type IgG1; control without FN3 domain
Turning to B2, the binding result with FcγRIIB protein is reported as “no binding”.

B3: OX40SF2IgG2sigma (antibody)
heavy: QVQLVQSGAEVKKPGSSVKVSCKASGYTFKDYTMHWVRQAPGQGLEWIGGIYPNNGGSTYNQNFKDRVTLTADKSTSTAYMELSSLRSEDTAVYYCARMGYHGPHLDFDVWGQGTTVTVSSASTKGPSVFPLAPCSRSTSESTAALGCLVKDYFPEPVTVSWNSGALTSGVHTFPAVLQSSGLYSLSSVVTVPSSNFGTQTYTCNVDHKPSNTKVDKTVERKCCVECPPCPAPPAAASSVFLFPPKPKDTLMISRTPEVTCVVVDVSAEDPEVQFNWYVDGVEVHNAKTKPREEQFNSTFRVVSVLTVLHQDWLNGKEYKCKVSNKGLPSSIEKTISKTKGQPREPQVYTLPPSREEMTKNQVSLTCLVKGFYPSDIAVEWESNGQPENNYKTTPPMLDSDGSFFLYSKLTVDKSRWQQGNVFSCSVMHEALHNHYTQKSLSLSPGK
light: B1 light
notes: Anti-OX40 antibody, IgG2 sigma isotype (effector silent Fc: V234A, G237A, P238S, H268A, V309L, A330S, P331S against wild type IgG2); control without FN3 domain; also called parental antibody; parental OX40 antibody
As to B3, the EC50 in assay [1], in assay [2] and in assay [3] was above 10 µg/mL each time. Moreover, in assay [2], the “Binding to Raji cells mean signals at 10 µg/ml” value is 330 mean fluorescence signal. The binding result with FcγRIIB protein is “no binding”. For the same molecule, the “% activity at 1 µg/ml with Raji cells (HEK-Blue: OX40 NF-κB reporter, relative to 1 µg/ml OX40 ligand)” value in assay [4] came out at 2.2%. The “fold of agonism enhancement upon crosslinking (Raji cells)” value in assay [4] is 1 fold. The “fold of agonism enhancement upon crosslinking (Daudi cells)” value in assay [5] stood at 1 fold.
